Source: PMC509409, “Recognition and Accommodation at the Androgen Receptor Coactivator Binding Interface” (PLoS Biology, 2004)

How the values were obtained:
Assay in all cases: SPR; Biacore 2000; biotinylated peptides (about 250 RU) held on streptavidin cells, AR LBD injected at 10 μM, 5 μM, 1 μM and 300 nM, 10 μl/min; HBS-P (10 mM HEPES pH 7.4, 150 mM NaCl, 0.005% Surfactant P20); SMRT2 peptide cell subtracted as background; two-state conformational change model, Kd calculated from rate constants
Conditions in all cases: both partners purified
[1] = target: T1, biotinylated LxxLL peptide (biotin tag attached through the additional C-terminal SGSGK)
T1 construct: also in PDB 1T7F; The SGSGK-biotin form is told for the FRET assay; source: synthetic peptide (Anaspec)

[2] = target: T2, biotinylated FxxLW peptide (biotin tag attached through the additional C-terminal SGSGK)
T2 construct: also in PDB 1T79; The SGSGK-biotin form is told for the FRET assay; source: synthetic peptide (Anaspec)

[3] = target: T3, biotinylated FxxLF peptide (biotin tag attached through the additional C-terminal SGSGK)
T3 construct: also in PDB 1T7R; The SGSGK-biotin form is told for the FRET assay; source: synthetic peptide (Anaspec)

B1: androgen receptor ligand-binding domain (AR LBD), DHT-bound (domain or fragment)
chain: GSPGISGGGGGSHIEGYECQPIFLNVLEAIEPGVVCAGHDNNQPDSFAALLSSLNELGERQLVHVVKWAKALPGFRNLHVDDQMAVIQYSWMGLMVFAMGWRSFTNVNSRMLYFAPDLVFNEYRMHKSRMYSQCVRMRHLSQEFGWLQITPQEFLCMKALLLFSIIPVDGLKNQKFFDELRMNYIKELDRIIACKRKNPTSCSRRFYQLTKLLDSVQPIARELHQFTFDLLIKSHMVSVDFPEMMAEIISVQVPKILSGKVKPIYFHTQ
Kd [1]: 1800 nM
Kd [2]: 920 nM
Kd [3]: 1100 nM
